Patent publication US10617701B2, “Nutritional compositions containing phosphatidylethanolamine, sphingomyelin and docosahexaenoic acid” (Mead Johnson Nutrition Company, priority 2015, dated 2020)

Test system: embryonic mouse cortical cells
Experiment: Functional neuronal maturation of cortical networks on microelectrode arrays (MEA recording, chronic treatment)
Type: cell-based
Conditions: cortical networks on MEAs
Experimental: Cortical cells were grown on multi-well microelectrode arrays (MEAs) and treated with 10 different experimental series, including different combinations of test agents (PE, SM, LF and DHA) and the activity was recoded at 4 different time points during the 4 weeks of functional neuronal maturation Cells growing on glass slides were treated in parallel for morphological and cell population analysis. These experiments aimed to elucidate whether the test compounds affect the functional and morphological neuronal maturation […] (see FIG. 1). […]
Primary cell culture for MEA recordings: In brief, frontal cortex tissue was harvested from embryonic day […] NMRI mice. […] Cultures on MEAs were incubated at 37° C. in a 10% CO2 atmosphere until ready for use, which usually is four weeks to three months after seeding. […]
Multichannel Recording: After establishing a stable activity pattern after 4 weeks, the neuronal networks on MEA chips are employed for substance testing. […] The signals routinely recorded by these neurochips are located in a range of 15-1800 […] . […]

B1: lactoferrin (protein, UniProt P24627 20-708, looked up)
Lactotransferrin: APRKNVRWCTISQPEWFKCRRWQWRMKKLGAPSITCVRRAFALECIRAIAEKKADAVTLDGGMVFEAGRDPYKLRPVAAEIYGTKESPQTHYYAVAVVKKGSNFQLDQLQGRKSCHTGLGRSAGWIIPMGILRPYLSWTESLEPLQGAVAKFFSASCVPCIDRQAYPNLCQLCKGEGENQCACSSREPYFGYSGAFKCLQDGAGDVAFVKETTVFENLPEKADRDQYELLCLNNSRAPVDAFKECHLAQVPSHAVVARSVDGKEDLIWKLLSKAQEKFGKNKSRSFQLFGSPPGQRDLLFKDSALGFLRIPSKVDSALYLGSRYLTTLKNLRETAEEVKARYTRVVWCAVGPEEQKKCQQWSQQSGQNVTCATASTTDDCIVLVLKGEADALNLDGGYIYTAGKCGLVPVLAENRKSSKHSSLDCVLRPTEGYLAVAVVKKANEGLTWNSLKDKKSCHTAVDRTAGWNIPMGLIVNQTGSCAFDEFFSQSCAPGADPKSRLCALCAGDDQGLDKCVPNSKEKYYGYTGAFRCLAEDVGDVAFVKNDTVWENTNGESTADWAKNLNREDFRLLCLDGTRKPVTEAQSCHLAVAPNHAVVSRSDRAAHVKQVLLHQQALFGKNGKNCPDKFCLFKSETKNLLFNDNTECLAKLGGRPTYEEYLGTEYVTAIANLKKCSTSPLLEACAFLTR
- acute effect on neuronal network activity in vitro: acutely affect neuronal network activity
